Experimental data reported in IntAct's records for PubMed 31515488.

B1: Ligand of Numb protein X 2 (Homo sapiens), Q8N448 (parent)
chain: MGTTSDEMVSVEQTSSSSLNPLCFECGQQHWTRENHLYNYQNEVDDDLVCHICLQPLLQPLDTPCGHTFCYKCLRNFLQEKDFCPLDRKRLHFKLCKKSSILVHKLLDKLLVLCPFSSVCKDVMQRCDLEAHLKNRCPGASHRRVALERRKTSRTQAEIENENGPTLLDPAGTLSPEADCLGTGAVPVERHLTSASLSTWSEEPGLDNPAFEESAGADTTQQPLSLPEGEITTIEIHRSNPYIQLGISIVGGNETPLINIVIQEVYRDGVIARDGRLLAGDQILQVNNYNISNVSHNYARAVLSQPCNTLHLTVLRERRFGNRAHNHSDSNSPREEIFQVALHKRDSGEQLGIKLVRRTDEPGVFILDLLEGGLAAQDGRLSSNDRVLAINGHDLKYGTPELAAQIIQASGERVNLTIARPGKPQPGNTIREAGNHSSSSQHHTPPPYYSRPSSHKDLTQCVTCQEKHITVKKEPHESLGMTVAGGRGSKSGELPIFVTSVPPHGCLARDGRIKRGDVLLNINGIDLTNLSHSEAVAMLKASAASPAVALKALEVQIVEEATQNAEEQPSTFSENEYDASWSPSWVMWLGLPSTLHSCHDIVLRRSYLGSWGFSIVGGYEENHTNQPFFIKTIVLGTPAYYDGRLKCGDMIVAVNGLSTVGMSHSALVPMLKEQRNKVTLTVICWPGSLV
partner: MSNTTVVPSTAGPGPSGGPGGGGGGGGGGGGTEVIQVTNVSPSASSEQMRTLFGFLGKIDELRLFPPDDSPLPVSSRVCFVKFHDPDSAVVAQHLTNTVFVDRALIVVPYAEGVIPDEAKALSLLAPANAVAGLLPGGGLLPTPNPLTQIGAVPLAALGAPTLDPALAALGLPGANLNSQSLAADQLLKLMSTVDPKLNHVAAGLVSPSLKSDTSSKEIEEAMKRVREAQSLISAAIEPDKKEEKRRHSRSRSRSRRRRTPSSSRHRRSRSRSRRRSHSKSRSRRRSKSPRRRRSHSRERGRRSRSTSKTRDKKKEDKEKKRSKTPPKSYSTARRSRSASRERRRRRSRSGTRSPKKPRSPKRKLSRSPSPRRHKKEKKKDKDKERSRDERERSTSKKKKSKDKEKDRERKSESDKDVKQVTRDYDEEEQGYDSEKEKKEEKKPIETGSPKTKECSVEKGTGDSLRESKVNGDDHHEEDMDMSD
B2: Microtubule-associated tumor suppressor candidate 2 (Homo sapiens), Q5JR59-3 (parent)
chain: MGHCCCKPYNCLQCLDKTNESALVKEKELSIELANIRDEVAFHTAKCEKLQKEKEELERRFEDEVKRLGWQQQAELQELEERLQLQFEAEMARLQEEHGDQLLSIRCQHQEQVEDLTASHDAALLEMENNHTVAITILQDDHDHKVQELMSTHELEKKELEENFEKLRLSLQDQVDTLTFQSQSLRDRARRFEEALRKNTEEQLEIALAPYQHLEEDMKSLKQVLEMKNQQIHEQEKKILELEKLAEKNIILEEKIQVLQQQNEDLKARIDQNTVVTRQLSEENANLQEYVEKETQEKKRLSRTNEELLWKLQTGDPTSPIKLSPTSPVYRGSSSGPSSPARVSTTPR
partner: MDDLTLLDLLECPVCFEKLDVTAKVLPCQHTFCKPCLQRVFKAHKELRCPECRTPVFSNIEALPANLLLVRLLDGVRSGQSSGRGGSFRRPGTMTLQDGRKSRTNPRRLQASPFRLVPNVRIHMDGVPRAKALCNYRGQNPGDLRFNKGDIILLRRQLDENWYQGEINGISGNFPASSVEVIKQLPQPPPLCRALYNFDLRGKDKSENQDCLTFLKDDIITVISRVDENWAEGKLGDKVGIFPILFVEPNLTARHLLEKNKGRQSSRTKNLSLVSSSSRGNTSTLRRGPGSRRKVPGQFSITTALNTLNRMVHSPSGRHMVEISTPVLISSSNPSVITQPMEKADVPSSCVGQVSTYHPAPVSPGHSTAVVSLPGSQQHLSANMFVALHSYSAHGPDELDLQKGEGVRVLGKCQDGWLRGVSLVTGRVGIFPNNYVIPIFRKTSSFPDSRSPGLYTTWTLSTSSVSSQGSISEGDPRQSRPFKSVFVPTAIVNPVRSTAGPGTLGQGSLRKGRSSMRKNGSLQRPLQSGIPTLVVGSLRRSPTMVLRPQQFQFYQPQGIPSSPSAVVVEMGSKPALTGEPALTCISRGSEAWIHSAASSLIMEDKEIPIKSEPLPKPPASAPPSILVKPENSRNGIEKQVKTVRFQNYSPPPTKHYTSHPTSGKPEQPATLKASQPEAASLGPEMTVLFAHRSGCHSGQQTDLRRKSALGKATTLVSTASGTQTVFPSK
B3: Notch homolog 2 N-terminal-like protein A (Homo sapiens), Q7Z3S9 (parent)
chain: MCVTYHNGTGYCKCPEGFLGEYCQHRDPCEKNRCQNGGTCVAQAMLGKATCRCASGFTGEDCQYSTSHPCFVSRPCLNGGTCHMLSRDTYECTCQVGFTGKECQWTDACLSHPCANGSTCTTVANQFSCKCLTGFTGQKCETDVNECDIPGHCQHGGTCLNLPGSYQCQCLQGFTGQYCDSLYVPCAPSPCVNGGTCRQTGDFTFECNCLPETVRRGTELWERDREVWNGKEHDEN
partner: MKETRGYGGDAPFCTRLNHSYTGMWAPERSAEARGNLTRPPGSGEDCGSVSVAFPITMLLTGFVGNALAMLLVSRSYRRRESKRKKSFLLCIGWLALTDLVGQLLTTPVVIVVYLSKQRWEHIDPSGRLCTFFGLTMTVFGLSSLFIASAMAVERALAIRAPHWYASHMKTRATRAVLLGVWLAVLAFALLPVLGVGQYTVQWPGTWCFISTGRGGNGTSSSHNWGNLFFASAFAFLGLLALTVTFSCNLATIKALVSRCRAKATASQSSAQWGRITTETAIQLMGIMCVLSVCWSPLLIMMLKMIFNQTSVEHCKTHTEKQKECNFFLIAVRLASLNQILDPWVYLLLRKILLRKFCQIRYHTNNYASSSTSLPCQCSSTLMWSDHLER
B4: Charged multivesicular body protein 7 (Homo sapiens), Q8WUX9 (parent)
chain: MWSPEREAEAPAGGDPAGLLPPEWEEDEERMSFLFSAFKRSREVNSTDWDSKMGFWAPLVLSHSRRQGVVRLRLRDLQEAFQRKGSVPLGLATVLQDLLRRGELQRESDFMASVDSSWISWGVGVFLLKPLKWTLSNMLGDNKVPAEEVLVAVELLKEKAEEVYRLYQNSPLSSHPVVALSELSTLCANSCPDERTFYLVLLQLQKEKRVTVLEQNGEKIVKFARGPRAKVSPVNDVDVGVYQLMQSEQLLSRKVESLSQEAERCKEEARRACRAGKKQLALRSLKAKQRTEKRIEALHAKLDTVQGILDRIYASQTDQMVFNAYQAGVGALKLSMKDVTVEKAESLVDQIQELCDTQDEVSQTLAGGVTNGLDFDSEELEKELDILLQDTTKEPLDLPDNPRNRHFTNSVPNPRISDAELEAELEKLSLSEGGLVPSSKSPKRQLEPTLKPL
partner: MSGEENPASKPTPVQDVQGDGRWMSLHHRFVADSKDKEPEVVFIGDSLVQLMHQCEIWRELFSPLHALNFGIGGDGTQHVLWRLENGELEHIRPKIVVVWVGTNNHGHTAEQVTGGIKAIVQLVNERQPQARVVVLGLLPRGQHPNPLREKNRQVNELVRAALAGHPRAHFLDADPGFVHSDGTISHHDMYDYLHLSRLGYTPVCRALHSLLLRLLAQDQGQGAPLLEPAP

Variants of: B1
Settings: with srs11_human SRSF11, Q05519

| Variant | effect of a mutation on the interaction |
| --- | --- |
| Y266C | disrupting interaction strength |

Variants of: B2
Settings: with sh3r2_human SH3RF2, Q8TEC5

| Variant | effect of a mutation on the interaction |
| --- | --- |
| A89V | with no effect |

Variants of: B3
Settings: with pe2r3_human PTGER3, P43115

| Variant | effect of a mutation on the interaction |
| --- | --- |
| A115T | with no effect |
| R74Q | with no effect |

Variants of: B4
Settings: with pa1b3_human PAFAH1B3, Q15102

| Variant | effect of a mutation on the interaction |
| --- | --- |
| R228C | with no effect |
